B1: PRT-14 (protein)
chain: MANQEIRYSEVTPYTVTSVWTKGVTPPADFTQGEDVFHAPYIANQGWYDITKTFNGKDDLLCGAATAGNMLHWWFDQNKEQIERYLKKHPEKQKINFNGEQMFDVKEAIDTKDSQTDSELFEYFKEKAFPYLSTKHLGVFPDHVLDMFINGYRLSLTNHGPTPVKEGSKDPRGGIFDAVFTRGDQSKLLTNRHDFKEKTLSEISDLIKKELTEGKALGLSHTYANVRINHVINLWGADFDSEGNLEAIYVTDSDSNASIGMKKYFVGVNSAGKVAISAKEIKEDNIGAQVLGLFTLSTGQDIWNQTN
B2: PRT-162 (protein)
chain: MANQEIRYSEVTPYHVTSVWTKGVTPPANFTQGEDVFHAPYVANQGWYDITKTFNGKDDLLCGAATAGNMLHWWFDQNKDQIKRYLEEHPEKQKINFNGEQMFDVKEAIDTKNSQTNSELFNYFKEKAFPYLSTKHLGVFPDHVIDMFINGYRLSLTNHGPTPVKEGSKDPRGGIFDAVFTRGDQSKLLTSRHDFKEKNLKEISDLIKKELTEGKALGLSHTYANVRINHVINLWGADFDSNGNLKAIYVTDSDSNASIGMKKYFVGVNSAGKVAISAKEIKEDNIGAQVLGLFTLSTGQDSWNQTN
B3: PRT-164 (protein)
chain: MANQEIRYSEVTPYHVTSVWTKGVTPPANFTQGEDVFHAPYVANQGWYDITKTFNGKDDLLCGAATAGNMLHWWFDQNKDQIKRYLEEHPEKQKINFNGEQMFDVKEAIDTKNSQENSELFNYFKEKAFPYLSTKHLGVFPDHVIDMFINGYRLSLTNHGPTPVKEGSKDPRGGIFDAVFTRGDQSKLLTSRHDFKEKNLKEISDLIKKELTEGKALGLSHTYANVRINHVINLWGADFDSNGNLKAIYVTDSDSNASIGMKKYFVGVNSAGKVAISAKEIKEDNIGAQVLGLFTLSTGQDSWNQTN
B4: PRT-163 (protein)
chain: MANQEIRYSEVTPYHVTSVWTKGVTPPANFTQGEDVFHAPYVANQGWYDITKTFNGKDDLLCGAATAGNMLHWWFDQNKDQIKRYLEEHPEKQKINFNGEQMFDVKEAIDTKNDQTNSELFNYFKEKAFPYLSTKHLGVFPDHVIDMFINGYRLSLTNHGPTPVKEGSKDPRGGIFDAVFTRGDQSKLLTSRHDFKEKNLKEISDLIKKELTEGKALGLSHTYANVRINHVINLWGADFDSNGNLKAIYVTDSDSNASIGMKKYFVGVNSAGKVAISAKEIKEDNIGAQVLGLFTLSTGQDSWNQTN
B5: PRT-153 (protein)
chain: MANQEIRYSEVTPYHVTSVWTKGVTPPANFTQGEDVFHAPYVANQGWYDITKTFNGKDDLLCGAATAGNMLHWWFDQNKTQIERYLKKHPEKQKINFNGEQMFDVKEAIDTKNHQLDSKLFEYFKEKAFPYLSTKHLGVFPDHVIDMFINGYRLSLTNHGPTPVKEGSKDPRGGIFDAVFTRGDQSKLLTSRHDFKEKNLKEISDLIKKELTEGKALGLSHTYANVRINHVINLWGADFDSNGNLKAIYVTDSDSNASIGMKKYFVGVNSAGKVAISAKEIKEDNIGAQVLGLFTLSTGKDSWKKTN
B6: PRT-156 (protein)
chain: MANQEIRYSEVTPYHVTSVWTKGVTPPTDFTQGEDVFHAPYKANQGWYDITKTFNGKDDLLCGAATAGNMLHWWFDQNKDQIKRYLEEHPEKQKINFNGEQMFDVKEAIDTKNHQLDSKLFEYFKEKAFPYLSTKHLGVFPDHVIDMFINGYRLSLTNHGPTPVKEGSKDPRGGIFDAVFTRGDQSKLLTSRHDFKEKNLKEISDLIKKELTEGKALGLSHTYANVRINHVINLWGADFDSNGNLKAIYVTDSDSNASIGMKKYFVGVNSAGKVAISAKEIKEDNIGAQVLGLFTLSTGQDSWNQTN
B7: PRT-157 (protein)
chain: MANQEIRYSEVTPYHVTSVWTKGVTPPEDFTQGEDVFHAPYKANQGWYDITKTFNGKDDLLCGAATAGNMLHWWFDQNKDQIKRYLEEHPEKQKINFNGEQMFDVKEAIDTKNHQLDSKLFEYFKEKAFPYLSTKHLGVFPDHVIDMFINGYRLSLTNHGPTPVKEGSKDPRGGIFDAVFTRGDQSKLLTSRHDFKEKNLKEISDLIKKELTEGKALGLSHTYANVRINHVINLWGADFDSNGNLKAIYVTDSDSNASIGMKKYFVGVNSAGKVAISAKEIKEDNIGAQVLGLFTLSTGQDSWNQTN
B8: PRT-154 (protein)
chain: MANQEIRYSEVTPYHVTSVWTKGVTPPANFTQGEDVFHAPYVANQGWYDITKTFNGKDDLLCGAATAGNMLHWWFDQNKTQIEAYLKKHPEKQKINFNGEQMFDVKEAIDTKNHQLDSKLFEYFKEKAFPYLSTKHLGVFPDHVIDMFINGYRLSLTNHGPTPVKEGSKDPRGGIFDAVFTRGDQSKLLTSRHDFKEKNLKEISDLIKKELTEGKALGLSHTYANVRINHVINLWGADFDSNGNLKAIYVTDSDSNASIGMKKYFVGVNSAGKVAISAKEIKEDNIGAQVLGLFTLSTGKKSWEKTN
B9: PRT-155 (protein)
chain: MANQEIRYSEVTPYHVTSVWTDGVTPPANFTQGEDVFHAPYVANQGWYDITKTFNGKDDLLCGAATAGNMLHWWFDQNSTQIEAYLKKHPEKQKINFNGEQMFDVKEAIDTKNHQLDSKLFEYFKEKAFPYLSTKHLGVFPDHVIDMFINGYRLSLTNHGPTPVKEGSKDPRGGIFDAVFTRGDQSKLLTSRHDFKEKNLKEISDLIKKELTEGKALGLSHTYANVRINHVINLWGADFDSNGNLKAIYVTDSDSNASIGMKKYFVGVNSAGKVAISAKEIKEDNIGAQVLGLFTLSTGKKSWEKTN
B10: PRT-158 (protein)
chain: MANQEIRYSEVTPYHVTSVWTKGVTPPTDFIKGEDVFHAPYKAHQGWYDITKTFNGKDDLLCGAATAGNMLHWWFDQNKDQIKRYLEEHPEKQKINFNGEQMFDVKEAIDTKNHQLDSKLFEYFKEKAFPYLSTKHLGVFPDHVIDMFINGYRLSLTNHGPTPVKEGSKDPRGGIFDAVFTRGDQSKLLTSRHDFKEKNLKEISDLIKKELQEGKALGLSHTYANVRINHVINLWGADFDSNGNLKAIYVTDSDSNASIGMKKYFVGVNSAGKVAISAKEIKEDNIGAQVLGLFTLSTGQDSWNQTN
B11: PRT-161 (protein)
chain: MANQEIRYSEVTPYHVTIVWTDGVKPPTDFIKGEDVFHAPYKAHQGWYDITKTFNGKDDLLCGAATAGNMLHWWFDQNKDQIKRYLEEHPEKQKINFNGEQMFDVKEAIDTKNHQLDSKLFEYFKEKAFPYLSTKHLGVFPDHVIDMFINGYRLSLTNHGPTPVKEGSKDPRGGIFDAVFTRGDQSKLLTSRHDFKEKNLKEISDLIKKELQEGKALGLSHTYANVRINHVINLWGADFDSNGNLKAIYVTDSDSNASIGMKKYFVGVNSAGKVAISAKEIKEDNIGAQVLGLFTLSTGQDSWNQTN
B12: PRT-159 (protein)
chain: MANQEIRYSEVTPYHVTSVWTKGVTPPTDFIKGEDVFHAPYKAGQGWYDITKTFNGKDDLLCGAATAGNMLHWWFDQNKDQIKRYLEEHPEKQKINFNGEQMFDVKEAIDTKNHQLDSKLFEYFKEKAFPYLSTKHLGVFPDHVIDMFINGYRLSLTNHGPTPVKEGSKDPRGGIFDAVFTRGDQSKLLTSRHDFKEKNLKEISDLIKKELQEGKALGLSHTYANVRINHVINLWGADFDSNGNLKAIYVTDSDSNASIGMKKYFVGVNSAGKVAISAKEIKEDNIGAQVLGLFTLSTGQDSWNQTN
B13: PRT-160 (protein)
chain: MANQEIRYSEVTPYHVTTVWTDGVKPPTDFIKGEDVFHAPYKAHQGWYDITKTFNGKDDLLCGAATAGNMLHWWFDQNKDQIKRYLEEHPEKQKINFNGEQMFDVKEAIDTKNHQLDSKLFEYFKEKAFPYLSTKHLGVFPDHVIDMFINGYRLSLTNHGPTPVKEGSKDPRGGIFDAVFTRGDQSKLLTSRHDFKEKNLKEISDLIKKELQEGKALGLSHTYANVRINHVINLWGADFDSNGNLKAIYVTDSDSNASIGMKKYFVGVNSAGKVAISAKEIKEDNIGAQVLGLFTLSTGQDSWNQTN

This data set concerns the target pooled human IgG.
B1 displayed an Enzyme Activity Endpoint Assay: Fab′2 of 18 ng/µL, an Enzyme Activity Endpoint Assay: Fc of 94 ng/µL, an Enzyme Activity Endpoint Assay: IgG of 13 ng/µL and an Enzyme Activity Endpoint Assay: scIgG of 43 ng/µL.

On to B2, for which the Enzyme Activity Endpoint Assay (purified): Fab'2 was 729 ng/µL, the Enzyme Activity Endpoint Assay (purified): Fc is 196 ng/µL, the Enzyme Activity Endpoint Assay (purified): IgG came out at 0 ng/µL and the Enzyme Activity Endpoint Assay (purified): scIgG is 0 ng/µL.

B3 had an Enzyme Activity Endpoint Assay (purified): Fab'2 of 508 ng/µL, an Enzyme Activity Endpoint Assay (purified): Fc of 203 ng/µL, an Enzyme Activity Endpoint Assay (purified): IgG of 0 ng/µL and an Enzyme Activity Endpoint Assay (purified): scIgG of 85 ng/µL.

With B4, the Enzyme Activity Endpoint Assay (purified): Fab'2 was determined as 706 ng/µL, the Enzyme Activity Endpoint Assay (purified): Fc is 184 ng/µL, the Enzyme Activity Endpoint Assay (purified): IgG turned out to be 29 ng/µL and the Enzyme Activity Endpoint Assay (purified): scIgG stood at 0 ng/µL.

B5 showed an Enzyme Activity Endpoint Assay (purified): Fab'2 of 619 ng/µL, an Enzyme Activity Endpoint Assay (purified): Fc of 190 ng/µL, an Enzyme Activity Endpoint Assay (purified): IgG of 0 ng/µL and an Enzyme Activity Endpoint Assay (purified): scIgG of 0 ng/µL.

Protein B6 returned an Enzyme Activity Endpoint Assay (purified): Fab'2 of 772 ng/µL, an Enzyme Activity Endpoint Assay (purified): Fc of 205 ng/µL, an Enzyme Activity Endpoint Assay (purified): IgG of 0 ng/µL and an Enzyme Activity Endpoint Assay (purified): scIgG of 0 ng/µL.

B7: the Enzyme Activity Endpoint Assay (purified): Fab'2 turned out to be 806 ng/µL, the Enzyme Activity Endpoint Assay (purified): Fc came to 198 ng/µL, the Enzyme Activity Endpoint Assay (purified): IgG was found to be 0 ng/µL and the Enzyme Activity Endpoint Assay (purified): scIgG is 0 ng/µL.

The protein B8 yielded an Enzyme Activity Endpoint Assay (purified): Fab'2 of 733 ng/µL, an Enzyme Activity Endpoint Assay (purified): Fc of 191 ng/µL, an Enzyme Activity Endpoint Assay (purified): IgG of 0 ng/µL and an Enzyme Activity Endpoint Assay (purified): scIgG of 0 ng/µL.

B9: the Enzyme Activity Endpoint Assay (purified): Fab'2 was found to be 751 ng/µL, the Enzyme Activity Endpoint Assay (purified): Fc turned out to be 197 ng/µL, the Enzyme Activity Endpoint Assay (purified): IgG is 0 ng/µL and the Enzyme Activity Endpoint Assay (purified): scIgG is 18 ng/µL.

B10 displayed an Enzyme Activity Endpoint Assay (purified): Fab'2 of 637 ng/µL, an Enzyme Activity Endpoint Assay (purified): Fc of 163 ng/µL, an Enzyme Activity Endpoint Assay (purified): IgG of 0 ng/µL and an Enzyme Activity Endpoint Assay (purified): scIgG of 0 ng/µL.

As to B11, the Enzyme Activity Endpoint Assay (purified): Fab'2 worked out at 669 ng/µL, the Enzyme Activity Endpoint Assay (purified): Fc was determined as 172 ng/µL, the Enzyme Activity Endpoint Assay (purified): IgG amounted to 0 ng/µL and the Enzyme Activity Endpoint Assay (purified): scIgG worked out at 0 ng/µL.

B12 gave an Enzyme Activity Endpoint Assay (purified): Fab'2 of 637 ng/µL, an Enzyme Activity Endpoint Assay (purified): Fc of 184 ng/µL, an Enzyme Activity Endpoint Assay (purified): IgG of 0 ng/µL and an Enzyme Activity Endpoint Assay (purified): scIgG of 0 ng/µL.

Regarding B13, the Enzyme Activity Endpoint Assay (purified): Fab'2 was 642 ng/µL, the Enzyme Activity Endpoint Assay (purified): Fc stood at 168 ng/µL, the Enzyme Activity Endpoint Assay (purified): IgG was determined as 0 ng/µL and the Enzyme Activity Endpoint Assay (purified): scIgG stood at 0 ng/µL.

(Values after patent US20250027068.)
